Results as given in paper PMC10967385, “Essential role of obscurin kinase-1 in cardiomyocyte coupling via N-cadherin phosphorylation” (JCI Insight, 2024).

Target: T1, MBP-p120-catenin(311-747), middle portion of p120-catenin containing armadillo domains 1-8 fused to maltose … (UniProt P30999 311-747)
T1 construct: p120-catenin, middle portion containing armadillo domains 1-8, aa 311-747; source: recombinant protein (source in Supplemental Methods)
T1 sequence (looked up): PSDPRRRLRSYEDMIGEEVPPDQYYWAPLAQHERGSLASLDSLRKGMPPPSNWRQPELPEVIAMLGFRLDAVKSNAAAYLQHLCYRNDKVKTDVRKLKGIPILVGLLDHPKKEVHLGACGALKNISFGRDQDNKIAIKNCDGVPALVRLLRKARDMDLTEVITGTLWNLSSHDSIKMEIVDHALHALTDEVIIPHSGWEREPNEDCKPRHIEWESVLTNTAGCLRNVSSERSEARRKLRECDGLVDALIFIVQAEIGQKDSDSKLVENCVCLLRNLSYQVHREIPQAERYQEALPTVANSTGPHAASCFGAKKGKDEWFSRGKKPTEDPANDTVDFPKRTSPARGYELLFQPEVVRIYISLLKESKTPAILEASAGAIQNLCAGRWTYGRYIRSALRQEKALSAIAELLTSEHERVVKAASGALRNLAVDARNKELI
Experiment: ITC; VP-ITC, 37°C, PBS pH 7.4; GST-Ncad ligands (80-100 μM) titrated into 10 μM MBP-p120-catenin(311-747) in the sample chamber; control titrations subtracted; 1-site binding model; average of 3 replicates; number of sites fixed to 1 for the SE ligand
Conditions: both partners purified

B1: GST-Ncad(746-906)-WT, recombinant GST-tagged cytoplasmic domain of N-cadherin (domain or fragment, mouse, UniProt P15116 746-906, looked up)
chain: MKRRDKERQAKQLLIDPEDDVRDNILKYDEEGGGEEDQDYDLSQLQQPDTVEPDAIKPVGIRRLDERPIHAEPQYPVRSAAPHPGDIGDFINEGLKAADNDPTAPPYDSLLVFDYEGSGSTAGSLSSLNSSSSGGDQDYDYLNDWGPRFKKLADMYGGGDD
notes: source: recombinant protein (source in Supplemental Methods)
- Kd: 1.25 µM

B2: GST-Ncad(746-906)-SE, phosphomimic Ser-788-Glu GST-tagged cytoplasmic domain of N-cadherin (domain or fragment, mouse, UniProt P15116 746-906, looked up)
chain: MKRRDKERQAKQLLIDPEDDVRDNILKYDEEGGGEEDQDYDLEQLQQPDTVEPDAIKPVGIRRLDERPIHAEPQYPVRSAAPHPGDIGDFINEGLKAADNDPTAPPYDSLLVFDYEGSGSTAGSLSSLNSSSSGGDQDYDYLNDWGPRFKKLADMYGGGDD
notes: as for B1
- Kd: 197 µM
